Experimental data published in publication PMC2575614.

Target: HLA-B*2705 heavy chain with the C-terminal sv5 epitope tag (human)
Test: two-dimensional gel electrophoresis (non-reducing) and immunoblot; 24-hour stimulated KG-1.B27sv5 cell lysates resolved under non-reducing conditions, immunoblot with HC10 or pK

## HLA-B*2705 heavy chain with the C-terminal sv5 epitope tag (natural protein)
  stoichiometry N: 2
